Results as given in the supplement of paper PMC10567573.

B1: DCTD (parent)
chain: VKGCSMYVALFPCNECAKLIIQAG
B2: TRIM35 (parent)
chain: PTCPVCKDRASPADLRTNHTLNNL

Variants of: B1
Assay: protein stability index of a GFP-peptide fusion (GPS, HEK-293T) (PSI 1-6); higher = more stable
Conditions: c terminus: a fixed tail appended
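Further: lentivirally expressed fusions sorted by FACS into six bins by GFP to DsRed ratio, PSI derived from sequencing read proportions per bin multiplied by bin number.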

Variant | protein stability index
VKGCSMYHALFPCNECAKLIIQAG [V8H] | 2.37
VKGCSMYDALFPCNECAKLIIQAG [V8D] | 1.62
VKGCSMYVALFPCNECAKLIIQAK [G24K] | 1.76
VKGCSSYVALFPCNECAKLIIQAG [M6S] | 2.46
VKGCSCYVALFPCNECAKLIIQAG [M6C] | 2.7
VKGCSMYVALFPCNECAKLIDQAG [I21D] | 3.77
VKYCSMYVALFPCNECAKLIIQAG [G3Y] | 4.09
VKGASMYVALFPCNECAKLIIQAG [C4A] | 2.19

Variants of: B2
Assay: as above
Conditions: c terminus: a fixed tail appended

Variant | protein stability index
PKCPVCKDRASPADLRTNHTLNNL [T2K] | 3.52
PHCPVCKDRASPADLRTNHTLNNL [T2H] | 2.82
PWCPVCKDRASPADLRTNHTLNNL [T2W] | 2.2
PDCPVCKDRASPADLRTNHTLNNL [T2D] | 3.68
PSCPVCKDRASPADLRTNHTLNNL [T2S] | 3.24
PMCPVCKDRASPADLRTNHTLNNL [T2M] | 3.14
PACPVCKDRASPADLRTNHTLNNL [T2A] | 3.67
PECPVCKDRASPADLRTNHTLNNL [T2E] | 3.47
PPCPVCKDRASPADLRTNHTLNNL [T2P] | 3.58
PRCPVCKDRASPADLRTNHTLNNL [T2R] | 3.12
PQCPVCKDRASPADLRTNHTLNNL [T2Q] | 3.27
PFCPVCKDRASPADLRTNHTLNNL [T2F] | 2.33
PVCPVCKDRASPADLRTNHTLNNL [T2V] | 3.82
PYCPVCKDRASPADLRTNHTLNNL [T2Y] | 2.3
PLCPVCKDRASPADLRTNHTLNNL [T2L] | 2.79
PCCPVCKDRASPADLRTNHTLNNL [T2C] | 2.9
PGCPVCKDRASPADLRTNHTLNNL [T2G] | 2.95
PICPVCKDRASPADLRTNHTLNNL [T2I] | 2.71
PNCPVCKDRASPADLRTNHTLNNL [T2N] | 3.26
ETCPVCKDRASPADLRTNHTLNNL [P1E] | 2.75
YTCPVCKDRASPADLRTNHTLNNL [P1Y] | 2.47
KTCPVCKDRASPADLRTNHTLNNL [P1K] | 2.82

Variant | protein stability index
STCPVCKDRASPADLRTNHTLNNL [P1S] | 2.8
ATCPVCKDRASPADLRTNHTLNNL [P1A] | 2.64
CTCPVCKDRASPADLRTNHTLNNL [P1C] | 3.87
FTCPVCKDRASPADLRTNHTLNNL [P1F] | 2.11
NTCPVCKDRASPADLRTNHTLNNL [P1N] | 2.41
HTCPVCKDRASPADLRTNHTLNNL [P1H] | 2.95
QTCPVCKDRASPADLRTNHTLNNL [P1Q] | 2.7
GTCPVCKDRASPADLRTNHTLNNL [P1G] | 2.17
LTCPVCKDRASPADLRTNHTLNNL [P1L] | 2.62
MTCPVCKDRASPADLRTNHTLNNL [P1M] | 2.62
VTCPVCKDRASPADLRTNHTLNNL [P1V] | 2.85
WTCPVCKDRASPADLRTNHTLNNL [P1W] | 1.6
TTCPVCKDRASPADLRTNHTLNNL [P1T] | 2.99
RTCPVCKDRASPADLRTNHTLNNL [P1R] | 2.56
ITCPVCKDRASPADLRTNHTLNNL [P1I] | 2.63
DTCPVCKDRASPADLRTNHTLNNL [P1D] | 3.2
PTCPVCWDRASPADLRTNHTLNNL [K7W] | 2.84
PTCPVCQDRASPADLRTNHTLNNL [K7Q] | 3.37
PTCPVCTDRASPADLRTNHTLNNL [K7T] | 2.72
PTCPVCVDRASPADLRTNHTLNNL [K7V] | 3.45
PTCPVCHDRASPADLRTNHTLNNL [K7H] | 3.13
PTCPVCPDRASPADLRTNHTLNNL [K7P] | 4.04

Variant | protein stability index
PTCPVCSDRASPADLRTNHTLNNL [K7S] | 2.68
PTCPVCEDRASPADLRTNHTLNNL [K7E] | 3.88
PTCPVCNDRASPADLRTNHTLNNL [K7N] | 3.13
PTCPVCLDRASPADLRTNHTLNNL [K7L] | 2.91
PTCPVCMDRASPADLRTNHTLNNL [K7M] | 2.87
PTCPVCYDRASPADLRTNHTLNNL [K7Y] | 2.72
PTCPVCADRASPADLRTNHTLNNL [K7A] | 3.19
PTCPVCDDRASPADLRTNHTLNNL [K7D] | 3.65
PTCPVCCDRASPADLRTNHTLNNL [K7C] | 2.68
PTCPVCRDRASPADLRTNHTLNNL [K7R] | 2.72
PTCPVCFDRASPADLRTNHTLNNL [K7F] | 2.94
PTCPVCGDRASPADLRTNHTLNNL [K7G] | 2.72
PTCPVCIDRASPADLRTNHTLNNL [K7I] | 3.18
PTCPVCKDYASPADLRTNHTLNNL [R9Y] | 3.08
PTCPVCKDMASPADLRTNHTLNNL [R9M] | 2.97
PTCPVCKDDASPADLRTNHTLNNL [R9D] | 3.99
PTCPVCKDHASPADLRTNHTLNNL [R9H] | 3.66
PTCPVCKDAASPADLRTNHTLNNL [R9A] | 2.98
PTCPVCKDEASPADLRTNHTLNNL [R9E] | 3.62
PTCPVCKDWASPADLRTNHTLNNL [R9W] | 3.11
PTCPVCKDPASPADLRTNHTLNNL [R9P] | 3.71
PTCPVCKDTASPADLRTNHTLNNL [R9T] | 3.5

Variant | protein stability index
PTCPVCKDVASPADLRTNHTLNNL [R9V] | 2.9
PTCPVCKDQASPADLRTNHTLNNL [R9Q] | 3.55
PTCPVCKDKASPADLRTNHTLNNL [R9K] | 3.16
PTCPVCKDNASPADLRTNHTLNNL [R9N] | 3.12
PTCPVCKDGASPADLRTNHTLNNL [R9G] | 3.66
PTCPVCKDLASPADLRTNHTLNNL [R9L] | 3.07
PTCPVCKDFASPADLRTNHTLNNL [R9F] | 3.11
PTCPVCKDCASPADLRTNHTLNNL [R9C] | 2.97
PTCPVCKDIASPADLRTNHTLNNL [R9I] | 2.96
PTCPVCKDSASPADLRTNHTLNNL [R9S] | 3.5
PTCPVCKVRASPADLRTNHTLNNL [D8V] | 2.39
PTCPVCKTRASPADLRTNHTLNNL [D8T] | 2.67
PTCPVCKNRASPADLRTNHTLNNL [D8N] | 2.65
PTCPVCKERASPADLRTNHTLNNL [D8E] | 2.75
PTCPVCKKRASPADLRTNHTLNNL [D8K] | 2.31
PTCPVCKRRASPADLRTNHTLNNL [D8R] | 2.02
PTCPVCKPRASPADLRTNHTLNNL [D8P] | 2.83
PTCPVCKQRASPADLRTNHTLNNL [D8Q] | 3
PTCPVCKIRASPADLRTNHTLNNL [D8I] | 2.65
PTCPVCKHRASPADLRTNHTLNNL [D8H] | 2.61
